Test results: paper PMC4520604, “Affinity Maturation of Monoclonal Antibody 1E11 by Targeted Randomization in CDR3 Regions Optimizes Therapeutic Antibody Targeting of HER2-Positive Gastric Cancer” (PLoS ONE, 2015)
Blank lines part the entries; values can stand above or below the binder they belong to.

Tests used:
Details in all cases: both partners purified
HER2-ECD-His protein [1] = target: T1, HER2-ECD-His protein (Homo sapiens, UniProt P04626); test: SPR; affinity: antibody captured at about 50 RU by goat anti-human IgG (γ) on CM5; HER2-ECD-His injected at 0 to 640 nM; fit to 1:1 (Langmuir) model
T1 construct: human epidermal growth factor receptor 2 (HER2), extracellular region (ECD); The SPR methods name HER2-ECD-His; The ELISA legends say only 'HER2-ECD protein'; also called HER2-ECD protein; extracellular region (ECD) of HER2; source: Freestyle 293 system, secreted, purified (Ni-NTA)

HER2-ECD-His protein [2] = target: T1, HER2-ECD-His protein; test: SPR; k off analysis of Fab: HER2-ECD-His immobilised on CM5 by amine coupling at about 2,000 RU; Fab injected at 2 μg/mL, 50 μL/minute
HER2-ECD-His protein [3] = target: T1, HER2-ECD-His protein; test: SPR; affinity: antibody captured at about 50 RU by goat anti-human IgG (γ) on CM5; HER2-ECD-His injected at 0 to 640 nM; fit to 1:1 (Langmuir) model; remark: listed apart in the source
HER2-ECD-His protein [4] = target: T1, HER2-ECD-His protein; test: SPR; k off analysis of IgG: antibody captured at 1 μg/mL by goat anti-human IgG (γ) immobilised on CM5; HER2-ECD-His injected at 160 nM

Kd (HER2-ECD-His protein [1]): 23 nM
B1: chimeric 1E11 (antibody, V domains shown)
VH: EVKLVESGGGLVQPGGSLKLSCAASGFTFSSYTMSWVRQTPEKRLEWVAYISNGGGSTYYPDTVKGRFTISRDNAKNTLYLQMSSLKSEDTAMYYCARHLGGTASFDYWGQGTTVTVSS
VL: DIQMTQSPASQSASLGESVTITCLASQTIGTWLAWYQQKPGKSPQLLIYVATSLADGVPSRFSGSGSGTKFSFKISSLQAEDFVSYYCQQLYSTPWTFGGGTKLELK
notes: VH of murine 1E11; VL of murine 1E11; Chimeric IgG; also called ch1E11; parental ch1E11; source: Freestyle 293 system, purified (protein-A)

fold increase of k off (against the parental Fab) (HER2-ECD-His protein [2]): 32 fold
B2: hz1E11 Fab, T99HA mutant (Fab, V domains shown)
VH: EVQLVESGGGLVQPGGSLRLSCAASGFTFSSYTMSWVRQAPGKGLEWVAYISNGGGSTYYPDTVKGRFTISRDNAKNSLYLQMNSLRAEDTAVYYCARHLGGAASFDYWGQGTLVTVSS
VL: DIQMTQSPSSLSASVGDRVTITCLASQTIGTWLAWYQQKPGKAPKLLIYVATSLADGVPSRFSGSGSGTDFTLTISSLQPEDFATYYCQQLYSTPWTFGQGTKVEIK
notes: as the VH of m4 (hz1E11); numbers count on: Kabat; as the VL of m4 (hz1E11); Fab in the vector pComb3X; source: E. coli DH5α, periplasmic extract, purified (IMAC)

Kd (HER2-ECD-His protein [3]): 1.9 nM
koff (HER2-ECD-His protein [3]): 0.00012 s⁻¹
kon (HER2-ECD-His protein [3]): 64000 M⁻¹ s⁻¹
koff (HER2-ECD-His protein [4]): 2.8e-05 s⁻¹
B3: clone 1A12 (IgG) (antibody, V domains shown)
VH: EVQLVESGGGLVQPGGSLRLSCAASGFTFSSYTMSWVRQAPGKGLEWVAYISNGGGSTYYPDTVKGRFTISRDNAKNSLYLQMNSLRAEDTAVYYCARHLGGTASFDYWGQGTLVTVSS
VL: DIQMTQSPSSLSASVGDRVTITCLASQTIGTWLAWYQQKPGKAPKLLIYVATSLADGVPSRFSGSGSGTDFTLTISSLQPEDFATYYCQQNAYAPWTFGQGTKVEIK
notes: as the VH of m4 (hz1E11); CDR-H3 HLGGTASFDY; as the VL of m4 (hz1E11); numbers count on: Kabat; IgG; also called L-1A12; source: Freestyle 293 system, purified (protein-A)

koff (HER2-ECD-His protein [4]): 1.87e-05 s⁻¹
B4: L-1A12 + H-1B12 (IgG) (antibody, V domains shown)
VH: EVQLVESGGGLVQPGGSLRLSCAASGFTFSSYTMSWVRQAPGKGLEWVAYISNGGGSTYYPDTVKGRFTISRDNAKNSLYLQMNSLRAEDTAVYYCARNYGGTASFDYWGQGTLVTVSS
VL: DIQMTQSPSSLSASVGDRVTITCLASQTIGTWLAWYQQKPGKAPKLLIYVATSLADGVPSRFSGSGSGTDFTLTISSLQPEDFATYYCQQNAYAPWTFGQGTKVEIK
notes: as the VH of m4 (hz1E11); numbers count on: Kabat; as the VL of m4 (hz1E11); IgG; also called combination of the VH of 1B12 and VL of 1A12; source: Freestyle 293 system, purified (protein-A)

koff (HER2-ECD-His protein [4]): 3.45e-05 s⁻¹
B5: L-1F11 + H-1B12 (IgG) (antibody, V domains shown)
VH: EVQLVESGGGLVQPGGSLRLSCAASGFTFSSYTMSWVRQAPGKGLEWVAYISNGGGSTYYPDTVKGRFTISRDNAKNSLYLQMNSLRAEDTAVYYCARNYGGTASFDYWGQGTLVTVSS
VL: DIQMTQSPSSLSASVGDRVTITCLASQTIGTWLAWYQQKPGKAPKLLIYVATSLADGVPSRFSGSGSGTDFTLTISSLQPEDFATYYCQQTAFSPWTFGQGTKVEIK
notes: as the VH of m4 (hz1E11); numbers count on: Kabat; as the VL of m4 (hz1E11); IgG; source: Freestyle 293 system, purified (protein-A)

koff (HER2-ECD-His protein [4]): 2.59e-05 s⁻¹
B6: L-1A12 + H-2A7 (IgG) (antibody, V domains shown)
VH: EVQLVESGGGLVQPGGSLRLSCAASGFTFSSYTMSWVRQAPGKGLEWVAYISNGGGSTYYPDTVKGRFTISRDNAKNSLYLQMNSLRAEDTAVYYCARNFGGTASFDYWGQGTLVTVSS
VL: DIQMTQSPSSLSASVGDRVTITCLASQTIGTWLAWYQQKPGKAPKLLIYVATSLADGVPSRFSGSGSGTDFTLTISSLQPEDFATYYCQQNAYAPWTFGQGTKVEIK
notes: as for B5

fold increase of k off (against the parental Fab) (HER2-ECD-His protein [2]): 17 fold
B7: hz1E11 Fab, G97HA mutant (Fab, V domains shown)
VH: EVQLVESGGGLVQPGGSLRLSCAASGFTFSSYTMSWVRQAPGKGLEWVAYISNGGGSTYYPDTVKGRFTISRDNAKNSLYLQMNSLRAEDTAVYYCARHLAGTASFDYWGQGTLVTVSS
VL: DIQMTQSPSSLSASVGDRVTITCLASQTIGTWLAWYQQKPGKAPKLLIYVATSLADGVPSRFSGSGSGTDFTLTISSLQPEDFATYYCQQLYSTPWTFGQGTKVEIK
notes: as the VH of m4 (hz1E11); numbers count on: Kabat; as the VL of m4 (hz1E11); Fab in the vector pComb3X; also called G97A; source: E. coli DH5α, periplasmic extract, purified (IMAC)

koff (HER2-ECD-His protein [4]): 4.5e-05 s⁻¹
B8: L-1F11 + H-2A7 (IgG) (antibody, V domains shown)
VH: EVQLVESGGGLVQPGGSLRLSCAASGFTFSSYTMSWVRQAPGKGLEWVAYISNGGGSTYYPDTVKGRFTISRDNAKNSLYLQMNSLRAEDTAVYYCARNFGGTASFDYWGQGTLVTVSS
VL: DIQMTQSPSSLSASVGDRVTITCLASQTIGTWLAWYQQKPGKAPKLLIYVATSLADGVPSRFSGSGSGTDFTLTISSLQPEDFATYYCQQTAFSPWTFGQGTKVEIK
notes: as for B5

Kd (HER2-ECD-His protein [3]): 1.4 nM
koff (HER2-ECD-His protein [3]): 0.00012 s⁻¹
kon (HER2-ECD-His protein [3]): 90000 M⁻¹ s⁻¹
koff (HER2-ECD-His protein [4]): 5.89e-05 s⁻¹
B9: clone 1F11 (IgG) (antibody, V domains shown)
VH: EVQLVESGGGLVQPGGSLRLSCAASGFTFSSYTMSWVRQAPGKGLEWVAYISNGGGSTYYPDTVKGRFTISRDNAKNSLYLQMNSLRAEDTAVYYCARHLGGTASFDYWGQGTLVTVSS
VL: DIQMTQSPSSLSASVGDRVTITCLASQTIGTWLAWYQQKPGKAPKLLIYVATSLADGVPSRFSGSGSGTDFTLTISSLQPEDFATYYCQQTAFSPWTFGQGTKVEIK
notes: as the VH of m4 (hz1E11); CDR-H3 HLGGTASFDY; as the VL of m4 (hz1E11); numbers count on: Kabat; IgG; also called L-1F11; source: Freestyle 293 system, purified (protein-A)
